From article PMC4947163, “RNA polymerase I–Rrn3 complex at 4.8 Å resolution” (Nature Communications, 2016) come the findings set out here.

The chains are these.
B1: Pol I subunit AC19 (natural protein, S. cerevisiae, UniProt P28000 1-142, looked up)
chain: MTEDIEQKKTATEVTPQEPKHIQEEEEQDVDMTGDEEQEEEPDREKIKLLTQATSEDGTSASFQIVEEDHTLGNALRYVIMKNPDVEFCGYSIPHPSENLLNIRIQTYGETTAVDALQKGLKDLMDLCDVVESKFTEKIKSM
notes: Pol I subunit AC19, S. cerevisiae; Stood in the assay as a subunit of the whole Pol I; source: endogenous, purified from yeast as part of Pol I
B2: Rrn3 (natural protein, S. cerevisiae)
chain: MMAFENTSKRPPQDFVAPIDQKKRKVQFSDSTGLVTLQPEEIKDEVFSAAMYSRFVKSALDDLDKNDSTQIGIIANQVALPSKNPERINDKNLNILLDILSSNINRIESSRGTFLIQSIINFEKWWELPPHTLSKYIYFIKILCSSIPKWWQDVSMILVSCFILPIKQTVCHHDMLKYFLRMIPSSMGFIDTYLAKFFPNKNDTRRKLVNYTSNLLKLRGYCSELGFQIWSLLIEKIISIDVELQNELDELDDDVDDDDLEEVDLEDDDDLDDDSGDDDDENCGNSNEELRSGAADGSQSDSEDMDIIEGMDGTEEYNVELTQGIKELSTKLDSILTLVSTHVEEQVTPESLESGEGVGVFNTLTTLFKTHVLPTYYTRSIQYIMFHVSQQQLELMDSFLVTLIDISFAVNEAAEKKIKSLQYLGSYIARAKKLSRTQIIFVASYLTSWLNRYVIEREEEVDQRGGMERFKHFYAAFQALCYIFCFRHNIFRDTDGNWECELDKFFQRMVISKFNPLKFCNENVMLMFARIAQQESVAYCFSIIENNNNERLRGIIGKADSDKKENSAQANTTSSSWSLATRQQFIDLQSYFPYDPLFLKNYKILMKEYYIEWSEASGEYESDGSDD
notes: Rrn3, Pol I-specific initiation factor, S. cerevisiae; also called Pol I-specific initiation factor Rrn3
B3: Pol I subunit AC40 (natural protein, S. cerevisiae, UniProt P07703 1-335, looked up)
chain: MSNIVGIEYNRVTNTTSTDFPGFSKDAENEWNVEKFKKDFEVNISSLDAREANFDLINIDTSIANAFRRIMISEVPSVAAEYVYFFNNTSVIQDEVLAHRIGLVPLKVDPDMLTWVDSNLPDDEKFTDENTIVLSLNVKCTRNPDAPKGSTDPKELYNNAHVYARDLKFEPQGRQSTTFADCPVVPADPDILLAKLRPGQEISLKAHCILGIGGDHAKFSPVSTASYRLLPQINILQPIKGESARRFQKCFPPGVIGIDEGSDEAYVKDARKDTVSREVLRYEEFADKVKLGRVRNHFIFNVESAGAMTPEEIFFKSVRILKNKAEYLKNCPITQ
notes: Pol I subunit AC40, S. cerevisiae; Stood in the assay as a subunit of the whole Pol I; source: endogenous, purified from yeast as part of Pol I
B4: Pol I subunit A34.5 (natural protein, S. cerevisiae, UniProt P47006 1-233, looked up)
chain: MSKLSKDYVSDSDSDDEVISNEFSIPDGFKKCKHLKNFPLNGDNKKKAKQQQVWLIKFPSNVDISKLKSLPVDFESSTTMTIDKHDYKIMDDTDIESSLTQDNLSNMTLLVPSESKESLKIASTAKDNAPLQFDKVFSVSETAKIPAIDYSKVRVPRKDVPKVEGLKLEHFATGYDAEDFHVAEEVKENKKEPKKRSHHDDEEESSEKKKKKKEKREKREKKDKKDKKKKHRD
notes: Pol I subunit A34.5, S. cerevisiae; Stood in the assay as a subunit of the whole Pol I; source: endogenous, purified from yeast as part of Pol I

Holding throughout (assay): cryo-EM structure; Pol I incubated with fivefold excess of Rrn3 and CF overnight at 4 °C, SEC in buffer A (150 mM sodium chloride, 5 mM HEPES pH 7.8, 1 mM magnesium chloride, 10 μM zinc chloride, 5 mM dithiothreitol), crosslinked with 1 mM BS3; single-particle reconstruction at 4.8 Å from 63,445 particles; crystal structures fitted as rigid bodies
Details in all cases: both partners purified

The assay “Rrn3” concerns the target B2.
In the assay “Pol I subunit AC40” the target is B3.
The next assay deals with T1, Pol I subunit A190 (S. cerevisiae, UniProt P10964 1-1664).
T1 construct: Pol I subunit A190, S. cerevisiae; Stood in the assay as a subunit of the whole Pol I; source: endogenous, purified from yeast as part of Pol I

The target of another assay is T2, Pol I subunit A135 (S. cerevisiae, UniProt P22138 1-1203).
T2 construct: Pol I subunit A135, S. cerevisiae; Stood in the assay as a subunit of the whole Pol I; source: endogenous, purified from yeast as part of Pol I
T2 sequence (looked up): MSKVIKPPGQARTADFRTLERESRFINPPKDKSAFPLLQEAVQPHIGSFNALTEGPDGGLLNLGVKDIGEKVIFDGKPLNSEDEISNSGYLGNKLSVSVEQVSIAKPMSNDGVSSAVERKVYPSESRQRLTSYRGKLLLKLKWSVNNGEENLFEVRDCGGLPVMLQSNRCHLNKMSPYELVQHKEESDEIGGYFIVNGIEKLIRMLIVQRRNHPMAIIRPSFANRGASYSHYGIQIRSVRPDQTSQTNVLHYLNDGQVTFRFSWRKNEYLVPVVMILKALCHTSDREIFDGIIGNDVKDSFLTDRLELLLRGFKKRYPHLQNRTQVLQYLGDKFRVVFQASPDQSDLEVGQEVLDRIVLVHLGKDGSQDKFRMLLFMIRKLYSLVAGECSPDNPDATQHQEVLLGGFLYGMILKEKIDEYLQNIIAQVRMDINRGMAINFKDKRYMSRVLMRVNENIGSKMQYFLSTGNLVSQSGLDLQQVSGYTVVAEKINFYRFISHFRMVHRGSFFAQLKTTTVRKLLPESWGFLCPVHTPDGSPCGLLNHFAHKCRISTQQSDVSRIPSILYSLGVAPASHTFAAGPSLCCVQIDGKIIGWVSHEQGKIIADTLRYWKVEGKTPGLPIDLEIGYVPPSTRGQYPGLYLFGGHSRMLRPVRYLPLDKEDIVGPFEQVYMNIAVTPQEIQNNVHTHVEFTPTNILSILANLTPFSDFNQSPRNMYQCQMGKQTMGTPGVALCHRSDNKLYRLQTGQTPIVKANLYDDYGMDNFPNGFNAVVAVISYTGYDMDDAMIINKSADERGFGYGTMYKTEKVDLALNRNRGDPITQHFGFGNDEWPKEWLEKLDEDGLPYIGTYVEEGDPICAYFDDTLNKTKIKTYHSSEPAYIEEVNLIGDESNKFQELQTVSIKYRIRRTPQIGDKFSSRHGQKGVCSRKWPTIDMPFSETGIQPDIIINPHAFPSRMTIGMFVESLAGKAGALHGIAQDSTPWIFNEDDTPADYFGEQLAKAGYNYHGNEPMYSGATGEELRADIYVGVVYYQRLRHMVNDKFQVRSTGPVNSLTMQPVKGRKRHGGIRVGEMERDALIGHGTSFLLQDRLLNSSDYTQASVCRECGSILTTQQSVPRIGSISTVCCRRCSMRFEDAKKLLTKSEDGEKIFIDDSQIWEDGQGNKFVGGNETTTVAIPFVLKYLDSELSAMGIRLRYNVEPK

The target in a further assay is T3, Pol I subunit A49 (S. cerevisiae, UniProt Q01080 1-415).
T3 construct: Pol I subunit A49, S. cerevisiae; Stood in the assay as a subunit of the whole Pol I; source: endogenous, purified from yeast as part of Pol I
T3 sequence (looked up): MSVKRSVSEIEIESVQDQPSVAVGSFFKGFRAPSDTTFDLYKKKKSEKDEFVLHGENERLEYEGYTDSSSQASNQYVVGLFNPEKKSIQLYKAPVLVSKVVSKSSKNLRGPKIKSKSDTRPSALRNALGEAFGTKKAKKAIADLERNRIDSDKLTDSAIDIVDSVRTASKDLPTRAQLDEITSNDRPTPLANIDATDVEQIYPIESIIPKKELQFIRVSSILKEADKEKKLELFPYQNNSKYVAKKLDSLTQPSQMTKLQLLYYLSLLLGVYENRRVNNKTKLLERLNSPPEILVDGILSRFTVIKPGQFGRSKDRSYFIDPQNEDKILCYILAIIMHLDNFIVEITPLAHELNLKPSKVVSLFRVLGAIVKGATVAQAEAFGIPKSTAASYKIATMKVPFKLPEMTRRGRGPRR

T1 sequence (P10964 whole entry): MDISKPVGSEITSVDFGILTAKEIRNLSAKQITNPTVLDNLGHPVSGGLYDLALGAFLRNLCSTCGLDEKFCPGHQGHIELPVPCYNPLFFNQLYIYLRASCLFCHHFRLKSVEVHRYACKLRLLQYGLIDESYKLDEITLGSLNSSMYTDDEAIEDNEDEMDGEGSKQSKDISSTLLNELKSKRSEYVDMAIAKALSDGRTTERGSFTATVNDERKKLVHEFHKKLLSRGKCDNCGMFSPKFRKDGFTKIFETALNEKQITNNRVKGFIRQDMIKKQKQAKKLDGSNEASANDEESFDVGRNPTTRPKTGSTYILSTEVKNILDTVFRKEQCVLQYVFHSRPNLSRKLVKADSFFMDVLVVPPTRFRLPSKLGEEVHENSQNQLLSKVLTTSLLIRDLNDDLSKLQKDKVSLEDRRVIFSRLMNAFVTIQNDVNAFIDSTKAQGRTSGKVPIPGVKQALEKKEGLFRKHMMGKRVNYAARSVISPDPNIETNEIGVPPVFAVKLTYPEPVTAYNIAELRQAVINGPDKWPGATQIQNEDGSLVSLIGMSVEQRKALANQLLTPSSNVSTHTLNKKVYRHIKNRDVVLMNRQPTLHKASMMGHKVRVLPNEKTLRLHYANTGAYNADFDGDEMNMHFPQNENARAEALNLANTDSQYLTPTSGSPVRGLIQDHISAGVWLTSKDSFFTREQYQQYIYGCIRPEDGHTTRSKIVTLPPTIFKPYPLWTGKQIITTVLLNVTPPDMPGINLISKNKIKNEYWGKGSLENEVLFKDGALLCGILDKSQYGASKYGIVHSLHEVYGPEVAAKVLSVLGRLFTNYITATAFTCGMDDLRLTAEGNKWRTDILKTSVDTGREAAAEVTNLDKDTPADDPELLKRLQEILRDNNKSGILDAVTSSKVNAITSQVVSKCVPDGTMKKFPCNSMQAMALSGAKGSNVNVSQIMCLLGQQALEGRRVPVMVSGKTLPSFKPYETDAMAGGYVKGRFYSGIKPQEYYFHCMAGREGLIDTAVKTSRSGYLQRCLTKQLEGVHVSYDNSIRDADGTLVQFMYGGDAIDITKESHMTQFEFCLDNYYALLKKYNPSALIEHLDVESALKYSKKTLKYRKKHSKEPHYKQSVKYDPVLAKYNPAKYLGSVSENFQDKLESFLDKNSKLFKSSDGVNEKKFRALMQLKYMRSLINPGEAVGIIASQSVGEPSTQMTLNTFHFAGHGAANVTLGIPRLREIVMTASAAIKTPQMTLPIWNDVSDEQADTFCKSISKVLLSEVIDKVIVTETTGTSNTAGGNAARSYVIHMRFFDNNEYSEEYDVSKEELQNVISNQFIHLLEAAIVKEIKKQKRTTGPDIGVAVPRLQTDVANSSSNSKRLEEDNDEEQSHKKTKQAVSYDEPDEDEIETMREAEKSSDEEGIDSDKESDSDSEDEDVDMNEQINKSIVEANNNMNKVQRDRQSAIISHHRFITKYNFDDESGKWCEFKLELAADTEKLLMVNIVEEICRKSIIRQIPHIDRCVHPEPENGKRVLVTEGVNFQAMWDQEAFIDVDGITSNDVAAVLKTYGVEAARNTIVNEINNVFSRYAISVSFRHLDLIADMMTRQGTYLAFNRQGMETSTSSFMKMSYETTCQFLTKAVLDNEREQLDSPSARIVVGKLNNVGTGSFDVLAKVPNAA

Consider B1, for which the binding result with Rrn3 and with Pol I subunit AC40 was “binds” in each case.

As to B2, the binding result with Pol I subunit A190 and with Pol I subunit A135 was “binds” throughout.

As to B3, the binding result in the assay with Rrn3 is “binds”.

With B4, the binding result with Pol I subunit A49 is given as “binds”.
